The results in this text go back to patent US20170137466A1 (UNIVERSITY OF SOUTHAMPTON, published 2017).

The experiment deals with T1, HLA-Cw*0102.
T1 construct: whole, on cells; MHC class I molecule on cells, as the partner that takes up the peptide; also called cell surface MHC class I of L721.174 cells
Put plainly: MHC class I stabilisation on L721.174 cells with increasing peptide, flow cytometry. In general terms: Flow cytometry measures light scatter and fluorescence of single cells or particles in a stream.

Excerpt: Cells were stained for cell surface of MHC class I and analysed by flow cytometry. The mean fluorescence intensity of cell surface MHC Class I was plotted against the peptide concentration.
3×10⁵ cells were used per condition. Following washing in PBS the cells were stained for cell surface of MHC class I and analysed by flow cytometry. The mean fluorescence intensity of cell surface MHC Class I was plotted against the peptide concentration.

B1: peptide LNPSVAATL (SEQ ID NO: 1) (peptide)
peptide: LNPSVAATL
Take B1: the binding result is “binds”.
